Usually EC50 stands for the concentration at which the effect is half-maximal.

For experiment [1], the target named is T1, Hu FcRn (BPS Bioscience) (human, UniProt P55899 24-297; P61769 21-119).
T1 construct: Bought recombinant protein coated on ELISA plates; also called human FcRn; human neonatal Fc receptor
Description: ELISA, huFcRn coated, pH 7.4. Here is the method: (§1) The binding of AFFIMER® to hu-FcRn was evaluated by enzyme linked immunosorbent assay (ELISA) in 384 well plate format. Hu FcRn (BPS Bioscience) was coated at 5 μg/ml on the plate in PBS, pH 7.4. Plates were washed 3 times with 100 μl of washing buffer (PBS, Tween 20 0.05%, pH 7.4) with a plate washer and saturated with Casein 5% (Sigma) in MES pH 7.4 for 60 minutes at room temperature (25±1° C.). Plates were washed as described previously. AFFIMER® and controls (mAb anti hFcRn (ADM31), blank) were then diluted in duplicate, and loaded on the plate for 90 minutes at room temperature (25±1° C.). Plates were washed 3 times as described previously. Biotinylated polyclonal antibody anti Cystatin (R&D Systems) was then diluted in dilution Buffer (1% casein, 0.01% Tween 20, and 8 mM MES. It is in pH 7.4) and incubated 60 minutes at room temperature (25±1° C.). Plates were washed 3 times as described previously and Streptavidin HRP (N200, thermo-Fisher) was incubated for 30 minutes at room temperature (25±1° C.). Plates were washed and the substrate (TMB, Pierce Thermo-Scientific) was added in the plate for 8±1 minute. The reaction was stopped using an acidic solution and plates were read at 450-630 nm.
(In an ELISA, binding on a coated surface is turned into a signal by an enzyme label.)

Experiment [2] has as its target T1, Hu FcRn (BPS Bioscience). Description: ELISA, huFcRn coated, purified Affimer, pH 7.4. Here is the method: as §1, with “100 ul” for “100 μl”, “in pH7.4)” for “in pH 7.4)”, “nm. The EC₅₀ was then calculated using the interpolated non-linear four-parameters standard curve (FIGS. 5A-5B, Table 5A).” for “nm.”
Experiment [3] deals with T1, Hu FcRn (BPS Bioscience). Kind of experiment: ELISA, huFcRn coated, purified Affimer, pH 6. Here is the method: (§2) The binding of AFFIMER® to hu-FcRn was evaluated by enzyme linked immunosorbent assay (ELISA) in 384 well plate format. Hu FcRn (BPS Bioscience) was coated at 5 μg/ml on the plate in 40 mM MES, pH 6. Plates were washed 3 times with 100 ul of washing buffer (PBS, Tween 20 0.05%, pH 6) with a plate washer and saturated with Casein 5% (Sigma) in MES pH 6 for 60 minutes at room temperature (25±1° C.). Plates were washed as described previously. AFFIMER® and negative controls (mAb anti hFcRn (clone ADM31), negative controls) were then diluted in duplicate, and loaded on the plate for 90 minutes at room temperature (25±1° C.). Plates were washed 3 times as described previously. Biotinylated polyclonal antibody anti Cystatin (R&D Systems) was then diluted in dilution buffer (1% casein, 0.05% Tween 20, and 8 mM MES, pH 6) and incubated 60 minutes at room temperature (25±1° C.). Plates were washed 3 times as described previously and Streptavidin HRP (N200, Thermo-Fisher) was incubated for 30 minutes at room temperature (25±1° C.). Plates were washed and the substrate (TMB, Pierce Thermo-Scientific) was added in the plate for 8±1 minute. The reaction was stopped using an acidic solution and plates were read at 450-630 nm. The EC₅₀ was then calculated using the interpolated non-linear four-parameters standard curve (FIGS. 5A-5B and Table 5A).

The target in experiment [4] is T1, Hu FcRn (BPS Bioscience). Kind of experiment: ELISA, huFcRn coated; ratio of the EC50 at the two pH values. Here is the method: as §2
The binding of AFFIMER® to hu-FcRn was evaluated by enzyme linked immunosorbent assay (ELISA) in 384 well plate format. Hu FcRn (BPS Bioscience) was coated at 5 μg/ml on the plate in PBS, pH 7.4. Plates were washed 3 times with 100 ul of washing buffer (PBS, Tween 20 0.05%, pH 7.4) with a plate washer and saturated with Casein 5% (Sigma) in MES pH 7.4 for 60 minutes at room temperature (25±1° C.). Plates were washed as described previously. AFFIMER® and controls (mAb anti hFcRn (ADM31), blank) were then diluted in duplicate, and loaded on the plate for 90 minutes at room temperature (25±1° C.). Plates were washed 3 times as described previously. […]

For experiment [5], the target named is T1, Hu FcRn (BPS Bioscience). Kind of experiment: ELISA, huFcRn coated, pH 6. The protocol:
The binding of AFFIMER® to Hu-FcRn was evaluated by enzyme linked immunosorbent assay (ELISA) in 384 well plate format. Hu FcRn (BPS Bioscience) was coated at 5 μg/ml on the plate in 40 mM MES, pH 6. Plates were washed 3 times with 100 μl of washing buffer (PBS, Tween 20 0.05%, pH 6) with a plate washer and saturated with Casein 5% (Sigma) in MES pH6 for 60 minutes at room temperature (25±1° C.). Plates were washed as described previously. AFFIMER® and negative controls (mAb anti hFcRn (clone ADM31), negative controls) were then diluted in duplicate, and loaded on the plate for 90 minutes at room temperature (25±1° C.). Plates were washed 3 times as described previously. Biotinylated polyclonal antibody anti Cystatin (R&D Systems) was then diluted in dilution Buffer (1% casein, 0.05% Tween 20, and 8 mM MES. It is in pH6) and incubated 60 minutes at room temperature (25±1° C.). Plates were washed 3 times as described previously and Streptavidin HRP (N200, thermo-Fisher) was incubated for 30 minutes at room temperature (25±1° C.). Plates were washed and the substrate (TMB, Pierce Thermo-Scientific) was added in the plate for 8±1 minute. The reaction was stopped using an acidic solution and plates were read at 450-630 nm. The EC50 was then calculated using the interpolated non-linear four-parameters standard curve (Table 4).

Experiment [6] has as its target T1, Hu FcRn (BPS Bioscience). Kind of experiment: ELISA, huFcRn coated, purified Affimer fusion, pH 6. Here is the method: as §2
Experiment [7] has as its target T1, Hu FcRn (BPS Bioscience). Description: ELISA, huFcRn coated, purified Affimer fusion, pH 7.4. The protocol:
as §1, with “100 ul” for “100 μl”, “in pH7.4)” for “in pH 7.4)”, “nm. The EC₅₀ was then calculated using the interpolated non-linear four-parameters standard curve (FIGS. 5A-5B, Table 5A).” for “nm.”

T1 sequence (P55899 24-297 limits assumed, chain 1 of 2): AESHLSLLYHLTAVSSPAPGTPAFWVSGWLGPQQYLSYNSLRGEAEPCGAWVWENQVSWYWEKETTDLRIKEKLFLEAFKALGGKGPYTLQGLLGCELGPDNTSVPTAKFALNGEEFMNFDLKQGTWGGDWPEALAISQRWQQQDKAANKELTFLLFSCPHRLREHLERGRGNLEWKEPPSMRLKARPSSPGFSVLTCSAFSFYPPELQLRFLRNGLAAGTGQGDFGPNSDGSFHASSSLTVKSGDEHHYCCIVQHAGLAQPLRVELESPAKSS
T1 sequence (P61769 21-119 limits assumed, chain 2 of 2): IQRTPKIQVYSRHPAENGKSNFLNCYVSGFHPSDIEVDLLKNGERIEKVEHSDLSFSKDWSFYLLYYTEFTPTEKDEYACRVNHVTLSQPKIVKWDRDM

B1: FcRn-35 (designed binder)
chain: MIPRGLSEAKPATPEIQEIVDKVKPQLEEKTNETYGKLEAVQYKTQVLAHRQYPPGPHSTNYYIKVRAGDNKYMHLKVFNGPYHFHHYYKHADRVLTGYQVDKNKDDELTGFHHHHHH
notes: AFFIMER (stefin A variant); also called LGC01-35
As for B1, the half-maximal effective concentration (EC50) in the experiment with Hu FcRn (BPS Bioscience) [1] was 225 nM; in the experiment with Hu FcRn (BPS Bioscience) [2] it was 113 nM; in the experiment with Hu FcRn (BPS Bioscience) [3], 0.673 nM; with Hu FcRn (BPS Bioscience) [5], 47.9 nM. For the same molecule, the “pH 6/pH 7.4 (EC50 ratio)” value with Hu FcRn (BPS Bioscience) [4] stood at 168.

B2: AVA04-251 FX6 (designed binder)
chain: MIPRGLSEAKPATPEIQEIVDKVKPQLEEKTNETYGKLEAVQYKTQVLALSFNNYHWHSTNYYIKVRAGDNKYMHLKVFNGPKLRHDKLTHADRVLTGYQVDKNKDDELTGFAEAAAKEAAAKEAAAKEAAAKEAAAKEAAAKMIPRGLSEAKPATPEIQEIVDKVKPQLEEKTNETYGKLEAVQYKTQVLAREGRQDWVLSTNYYIKVRAGDNKYMHLKVFNGPWVPFPHQQLADRVLTGYQVDKNKDDELTGFAEAAAKEAAAKEAAAKEAAAKEAAAKEAAAKMIPRGLSEAKPATPEIQEIVDKVKPQLEEKTNETYGKLEAVQYKTQVLAREGRQDWVLSTNYYIKVRAGDNKYMHLKVFNGPWVPFPHQQLADRVLTGYQVDKNKDDELTGFHHHHHH
Take B2: the concentration for a half-maximal effect (EC50) in the experiment with Hu FcRn (BPS Bioscience) [6] came to 0.03 nM; with Hu FcRn (BPS Bioscience) [7], 4.3 nM. Also, in the experiment with Hu FcRn (BPS Bioscience) [4], the “pH 6/pH 7.4 (EC50 ratio)” value came out at 143.

B3: FcRn-38 (designed binder)
chain: MIPRGLSEAKPATPEIQEIVDKVKPQLEEKTNETYGKLEAVQYKTQVLALSFNNYHWHSTNYYIKVRAGDNKYMHLKVFNGPKLRHDKLTHADRVLTGYQVDKNKDDELTGFHHHHHH
notes: AFFIMER (stefin A variant); also called LGC01-38
In the case of B3, the EC50 in the experiment with Hu FcRn (BPS Bioscience) [1] is 0.895 nM; with Hu FcRn (BPS Bioscience) [2], 0.5 nM; with Hu FcRn (BPS Bioscience) [3], 0.003 nM; in the experiment with Hu FcRn (BPS Bioscience) [5], 0.14 nM. Further, in the experiment with Hu FcRn (BPS Bioscience) [4], the “pH 6/pH 7.4 (EC50 ratio)” value is 167.

Values taken from US20230097573A1 (LG CHEM, published 2023).
